T1: GST-APE2 (Xenopus laevis, UniProt Q6DDT4 1-517)
T1 sequence (looked up): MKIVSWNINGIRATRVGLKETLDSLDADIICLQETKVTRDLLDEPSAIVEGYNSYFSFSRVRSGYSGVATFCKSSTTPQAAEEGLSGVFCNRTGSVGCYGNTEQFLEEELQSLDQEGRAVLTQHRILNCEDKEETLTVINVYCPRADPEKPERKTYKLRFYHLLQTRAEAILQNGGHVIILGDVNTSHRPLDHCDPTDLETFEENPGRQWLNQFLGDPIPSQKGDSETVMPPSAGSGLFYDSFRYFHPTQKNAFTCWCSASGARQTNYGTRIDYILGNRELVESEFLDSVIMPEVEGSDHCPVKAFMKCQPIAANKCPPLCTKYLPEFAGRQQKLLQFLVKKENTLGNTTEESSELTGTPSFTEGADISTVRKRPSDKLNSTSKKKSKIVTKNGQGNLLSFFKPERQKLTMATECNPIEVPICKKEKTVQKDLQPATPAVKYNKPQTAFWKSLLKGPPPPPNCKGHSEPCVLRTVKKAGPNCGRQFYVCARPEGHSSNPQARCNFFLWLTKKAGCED

B1: WT His-tagged PCNA (natural protein, Xenopus laevis, UniProt P18248 1-261, looked up)
chain: MFEARLVQGSILKKVLEALKDLIDEACWDITSSGISLQSMDSSHVSLVQLTLRSDGFDTYRCDRNQSIGVKMSSMSKILKCAASDDIITLRAEDNADTVTMVFESPNQEKVSDYEMKLMDLDVEQLGIPEQEYSCVIKMPSGEFARICRDLSQIGDAVVISCAKDGVKFSASGELGTGNVKLSQTSNVDKEEEAVTIEMNEPVQLTFALRYLNFFTKATPLSPTVILSMSADIPLVVEYKIADMEHVKYYLAPKIEDEEAS
B2: GST-APE2-ZF (domain or fragment, Xenopus laevis, UniProt Q6DDT4 456-517, looked up)
chain: GPPPPPNCKGHSEPCVLRTVKKAGPNCGRQFYVCARPEGHSSNPQARCNFFLWLTKKAGCED

Experiment in all cases: pull-down
For one experiment, the target named is T1, GST-APE2.
In the experiment “WT His-tagged PCNA” the target is B1.
Experiment [1] deals with PK PCNA (P253A-K254A PCNA) (Xenopus laevis, UniProt P18248 1-261, P253A | K254A).

As to B1, the binding result with GST-APE2 is “binds”.

On to B2, for which the binding result (with WT His-tagged PCNA; in experiment [1]) was “binds” each time.
